Reference: the supplement of paper PMC7125110
± gives the standard error. Fewer inactive variants are shown than the library holds.

B1: glmS ribozyme (parent)
chain: AUAAAAGCGCCAGAACUACAGAAAUGUAGUUGACGAGGAGGAGGUUUAUCGAAUUUUCGGCGGAUGCCUCCAAA

Assays:
Conditions in all cases: with glucosamine-6-phosphate
glucosamine-6-phosphate [1] = variants of: B1; assay: self-cleavage kobs at 40 uM GlcN6P; higher = faster cleavage; RNA array
Summary of the method: (§1)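 Tracking of barcoded ribozyme variants used a hybridised Cy3 probe at 37 °C, after in situ transcription by E. coli RNA polymerase on sequenced MiSeq chips. The flowed solution held 40 μM to 10 mM glucosamine-6-phosphate in HEPES/KCl/Mg(OAc)2 buffer, and imaging ran over ~14 h. kobs was taken from exponential decay fits of normalised per-tile medians, and kcat and KM from weighted Michaelis–Menten fits.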

glucosamine-6-phosphate [2] = variants of: B1; assay: self-cleavage kobs at 160 uM GlcN6P; higher = faster cleavage; RNA array
Summary of the method: as §1

glucosamine-6-phosphate [3] = variants of: B1; assay: self-cleavage kobs at 640 uM GlcN6P; higher = faster cleavage; RNA array
Summary of the method: as §1

glucosamine-6-phosphate [4] = variants of: B1; assay: self-cleavage kobs at 2500 uM GlcN6P; higher = faster cleavage; RNA array
Summary of the method: as §1

glucosamine-6-phosphate [5] = variants of: B1; assay: self-cleavage kobs at 10000 uM GlcN6P; higher = faster cleavage; RNA array
Summary of the method: as §1

Variant | self-cleavage kobs at 40 uM GlcN6P (glucosamine-6-phosphate [1]) [s⁻¹] | self-cleavage kobs at 160 uM GlcN6P (glucosamine-6-phosphate [2]) [s⁻¹] | self-cleavage kobs at 640 uM GlcN6P (glucosamine-6-phosphate [3]) [s⁻¹] | self-cleavage kobs at 2500 uM GlcN6P (glucosamine-6-phosphate [4]) [s⁻¹] | self-cleavage kobs at 10000 uM GlcN6P (glucosamine-6-phosphate [5]) [s⁻¹]
A6G G13C | < 1e-05 | < 1e-05 | < 1e-05 | < 1e-05 | < 1e-05
A14G A53C C71U | 0.000387 ± 8.7e-05 | – | 0.00168 ± 0.00056 | 0.00736 ± 0.003 | 0.00798 ± 0.002
G29U G63U | < 1e-05 | < 1e-05 | < 1e-05 | – | < 1e-05
C11G U69G | 3.62e-05 ± 1.4e-05 | 0.000125 ± 2.3e-05 | 0.000184 ± 3.4e-05 | 8.88e-05 ± 1.6e-05 | –
A12U A33C G37C | < 1e-05 | – | – | – | < 1e-05
C8A A14G | < 1e-05 | – | < 1e-05 | – | –
G40A C50G G66C | 0.00112 ± 0.00049 | – | – | – | 0.00127 ± 0.00049
G35U C50G | 3.53e-05 ± 1.5e-05 | 9.05e-05 ± 2.7e-05 | – | 0.000141 ± 3.9e-05 | –
G51C A52U | < 1e-05 | – | < 1e-05 | – | < 1e-05
A6C G41A | < 1e-05 | – | < 1e-05 | < 1e-05 | –
A36C A48C U56A | < 1e-05 | – | – | – | –
G40U A53U C58A G62U | < 1e-05 | – | – | – | –
C8A G38C C71A | < 1e-05 | – | < 1e-05 | – | –
C11U G32C U55G A64C | < 1e-05 | – | < 1e-05 | – | < 1e-05
A33U G59C | < 1e-05 | – | < 1e-05 | – | < 1e-05
A15C C70U | 0.000192 ± 1.8e-05 | 0.000389 ± 4.7e-05 | 0.000719 ± 7.7e-05 | 0.00537 ± 0.0012 | 0.00871 ± 0.0019
C34A G37C G60U | < 1e-05 | – | – | – | < 1e-05
C8U G43U G44U C71A | < 1e-05 | – | < 1e-05 | – | –
A12G A14U G38A | < 1e-05 | – | – | – | < 1e-05
G9A U30C U31C C50A | < 1e-05 | < 1e-05 | < 1e-05 | – | < 1e-05
G13C A36C U46G C68A | < 1e-05 | – | – | – | < 1e-05
U47A A53U | 0.000547 ± 6.1e-05 | 0.00098 ± 0.0002 | 0.00349 ± 0.00062 | 0.00324 ± 0.00072 | 0.0124 ± 0.0022
G13C C50G G66C | 3.47e-05 ± 1.6e-05 | – | – | – | –
G35A G66U | < 1e-05 | < 1e-05 | – | – | –

Variant | self-cleavage kobs at 40 uM GlcN6P (glucosamine-6-phosphate [1]) [s⁻¹] | self-cleavage kobs at 160 uM GlcN6P (glucosamine-6-phosphate [2]) [s⁻¹] | self-cleavage kobs at 640 uM GlcN6P (glucosamine-6-phosphate [3]) [s⁻¹] | self-cleavage kobs at 2500 uM GlcN6P (glucosamine-6-phosphate [4]) [s⁻¹] | self-cleavage kobs at 10000 uM GlcN6P (glucosamine-6-phosphate [5]) [s⁻¹]
A12U U54C | 0.00204 ± 0.00025 | 0.00477 ± 0.00085 | 0.0165 ± 0.0024 | 0.0157 ± 0.0029 | 0.0931 ± 0.024
A15C G40A U49G C71U | < 1e-05 | – | – | – | 4.71e-05 ± 1.3e-05
A12C A33C C71G | < 1e-05 | – | – | – | < 1e-05
G40A C67A | < 1e-05 | – | 0.000183 ± 5.8e-05 | 0.000262 ± 0.00011 | –
C10G G32A | < 1e-05 | – | – | – | < 1e-05
G32A A52U C71A | < 1e-05 | – | – | – | –
A12C G40A | 0.000112 ± 2.1e-05 | 0.000305 ± 8e-05 | 0.000633 ± 0.00023 | 0.00149 ± 0.00055 | 0.00569 ± 0.0013
C11A C16G U54A C68A | 6.79e-05 ± 2.4e-05 | – | – | – | 5.11e-05 ± 2e-05
G29C U45C G62A | < 1e-05 | – | – | < 1e-05 | –
U46C C61G | < 1e-05 | < 1e-05 | < 1e-05 | < 1e-05 | –
A15G A36G G44U | < 1e-05 | – | – | < 1e-05 | –
G32U G44U U45A | < 1e-05 | – | – | – | –
A15G G41A | 0.000137 ± 1.9e-05 | 0.000239 ± 4.1e-05 | 0.000767 ± 0.00025 | 0.0013 ± 0.00038 | 0.00309 ± 0.00072
C11U C58G C67U U69G | 3.48e-05 ± 1.2e-05 | – | – | – | 6.72e-05 ± 1.3e-05
C8U U55C | < 1e-05 | – | < 1e-05 | < 1e-05 | < 1e-05
G60A C71U | < 1e-05 | – | < 1e-05 | – | –
C8G U30A | < 1e-05 | < 1e-05 | < 1e-05 | – | < 1e-05
G13U A36U C50U C70U | 7.67e-05 ± 2.7e-05 | – | – | – | –
G38U C61U U69C C71G | 6.15e-05 ± 2.4e-05 | – | – | – | 4.2e-05 ± 1.5e-05
G43A G62C U65C C68G | < 1e-05 | – | – | – | –
A15U U47C C61U | < 1e-05 | – | – | – | < 1e-05
A15G U54A G62C U65A | < 1e-05 | – | < 1e-05 | < 1e-05 | < 1e-05
G7C G43U | < 1e-05 | < 1e-05 | < 1e-05 | – | < 1e-05
